From the RNAGym collection of RNA variant scans (doi:10.1021/acssynbio.7b00057)

B1: Pistol ribozyme (parent)
chain: GGGUCGUUGUUCCAUAAUCGCGUGGAUAUGGCACGCAAGUUUCUACCGGGCACCGUAAAUGUCCGACUGGAGCCGUUCGGGCGGCUAUAAACAGACCUCAGGCCCGAAGCGUGGCGGCACCUGCCGCCGGUGGUAAAAAAGAUCGGAAGAGCACACGUCU

Variants of: B1
Experiment: aptazyme ON/OFF ratio, guanine; higher = stronger switching; co-transcriptional cleavage with and without guanine

| Variant | aptazyme ON/OFF ratio |
| --- | --- |
| G9U U10G C12G C13U | 1.23 |
| G9U U10G C12G C13G | 1.41 |
| G9U U10G U11C C13A | 1.26 |
| G9U U10G U11C C13U | 1.14 |
| G9U U10G U11C C13G | 1.1 |
| U10A C12U C13A | 1.3 |
| U10A C12U C13G | 1.33 |
| U10A C12U C13U | 1.54 |
| U10A U11A C12A C13U | 1.47 |
| U10A U11A C12A C13A | 1.39 |
| U10A U11A C12A C13G | 1.18 |
| G9U U10G C12G | 1.64 |
| G9U U10G C12A | 1.47 |
| G9U U10G C12U | 1.62 |
| U10C U11C C12U | 1.08 |
| U10C U11C C12A | 1.27 |
| U10C U11C C12G | 1.07 |
| U10C C12A C13U | 1.18 |
| U10C C12A C13G | 1.19 |
| U10C C12A C13A | 1.23 |
| U10A U11G C13G | 1.19 |
| U10A U11G C13A | 1.33 |
| U10A U11G C13U | 1.37 |
| U10C U11C C12G C13A | 1.17 |

| Variant | aptazyme ON/OFF ratio |
| --- | --- |
| U10C U11C C12G C13G | 1.16 |
| U10C U11C C12G C13U | 1.11 |
| U10A U11A C12G C13U | 1.23 |
| U10A U11A C12G C13A | 1.42 |
| U10A U11A C12G C13G | 1.3 |
| G9U U10C U11C C12A C13U | 1.2 |
| G9U U10C U11C C12A C13G | 1.27 |
| U10A U11G C12G C13G | 1.42 |
| U10A U11G C12G C13U | 1.43 |
| U10A U11G C12G C13A | 1.27 |
| U10C U11C C13A | 1.02 |
| U10C U11C C13G | 1.07 |
| U10C U11C C13U | 1.03 |
| G9U U11A C12U | 1.47 |
| G9U U11A C12A | 2.63 |
| G9U U11A C12G | 1.55 |
| U10G C12U C13G | 1.28 |
| U10G C12U C13U | 1.15 |
| U10G C12U C13A | 1.33 |
| G9U U11G C12U C13G | 1.43 |
| G9U U11G C12U C13A | 1.43 |
| G9U U11G C12U C13U | 1.29 |
| G9U U10G U11G | 1.55 |
| G9U U10G U11A | 1.2 |

| Variant | aptazyme ON/OFF ratio |
| --- | --- |
| G9U U10G U11C | 1.28 |
| U10C C12G C13G | 1.09 |
| U10C C12G C13A | 1.24 |
| U10C C12G C13U | 1.35 |
| G9U U11G C12U | 1.99 |
| G9U U11G C12G | 2.82 |
| G9U U11G C12A | 2.21 |
| G9U U10G U11C C12U C13G | 1.17 |
| G9U U10G U11C C12U C13A | 1.14 |
| G9U U10G U11C C12U C13U | 1.18 |
| G9U U10G U11A C12U C13A | 1.21 |
| G9U U10G U11A C12U C13U | 1.85 |
| G9U U10G U11A C12U C13G | 1.24 |
| U10A U11C | 1.05 |
| U10A U11A | 1.73 |
| U10A U11G | 2.01 |
| G9U U10G U11G C12G C13G | 1.31 |
| G9U U10G U11G C12G C13A | 1.25 |
| G9U U10G U11G C12G C13U | 1.27 |
| U10C U11G C13A | 1.27 |
| U10C U11G C13G | 1.22 |
| U10C U11G C13U | 1.35 |
| U10G U11C C12U C13U | 1.11 |
| U10G U11C C12U C13G | 1.27 |

| Variant | aptazyme ON/OFF ratio |
| --- | --- |
| U10G U11C C12U C13A | 1.2 |
| U10C U11G C12A C13A | 1.27 |
| U10C U11G C12A C13U | 1.3 |
| U10C U11G C12A C13G | 1.31 |
| G9U U11A C12G C13G | 1.2 |
| G9U U11A C12G C13A | 1.82 |
| G9U U11A C12G C13U | 1 |
| U10G C12A | 1.41 |
| U10G C12G | 1.12 |
| U10G C12U | 1.58 |
| U10G U11A C12G C13U | 1.33 |
| U10G U11A C12G C13G | 1.34 |
| U10G U11A C12G C13A | 1.16 |
| U10A U11G C12U | 1.52 |
| U10A U11G C12A | 1.13 |
| U10A U11G C12G | 1.55 |
| U10G C12A C13U | 1.19 |
| U10G C12A C13G | 1.06 |
| U10G C12A C13A | 1.25 |
| G9U U10C U11G C12A C13G | 1.22 |
| G9U U10C U11G C12A C13A | 1.34 |
| G9U U10C U11G C12A C13U | 1.08 |
| U10G U11A C12U C13G | 1.2 |
| U10G U11A C12U C13A | 1.28 |

| Variant | aptazyme ON/OFF ratio |
| --- | --- |
| U10G U11A C12U C13U | 1.36 |
| G9U U10C U11C C12G | 1.12 |
| G9U U10C U11C C12U | 1.31 |
| G9U U10G C12A C13U | 1.45 |
| G9U U10G C12A C13G | 1.17 |
| G9U U10G C12A C13A | 0.843 |
| U10C U11A C12U C13G | 1.32 |
| U10C U11A C12U C13A | 1.38 |
| U10C U11A C12U C13U | 1.19 |
| U10G U11C C12A | 1.51 |
| U10G U11C C12G | 1.43 |
| U10G U11C C12U | 1.08 |
| G9U U10C U11G C13G | 1.18 |
| G9U U10C U11G C13U | 1.52 |
| G9U U10C U11G C13A | 1.36 |
| G9U U11C C12G C13A | 1.3 |
| G9U U11C C12G C13U | 1.68 |
| G9U U11C C12G C13G | 1.28 |
| U10G U11G C13G | 1.21 |
| U10G U11G C13U | 1.16 |
| U10G U11G C13A | 1.26 |
| G9U U10G U11G C12U C13U | 1.34 |
| G9U U10G U11G C12U C13G | 1.17 |
| G9U U10G U11G C12U C13A | 1.1 |

| Variant | aptazyme ON/OFF ratio |
| --- | --- |
| G9U U10G U11C C12A C13A | 1.34 |
| G9U U10G U11C C12A C13U | 1.23 |
| G9U U10G U11C C12A C13G | 1.29 |
| G9U U10G U11G C13U | 1.26 |
| G9U U10G U11G C13A | 1.25 |
| G9U U10G U11G C13G | 1.19 |
| U10G U11A C12G | 1.4 |
| U10G U11A C12U | 1.15 |
| U10G U11A C12A | 1.39 |
| G9U U10G U11G C12A C13G | 1.13 |
| G9U U10G U11G C12A C13U | 1.38 |
| G9U U10G U11G C12A C13A | 1.28 |
| U10A U11G C12A C13A | 1.04 |
| U10A U11G C12A C13U | 1.46 |
| U10A U11G C12A C13G | 1.23 |
| U10G | 1.88 |
| U10A | 1.15 |
| U10C | 3.69 |
| U10C C12G | 1.36 |
| U10C C12A | 1.51 |
| U10C C12U | 2.09 |
| G9U U10C U11G | 3.45 |
| U10C U11G C12U | 1.31 |
| U10C U11G C12G | 1.25 |

| Variant | aptazyme ON/OFF ratio |
| --- | --- |
| U10C U11G C12A | 1.1 |
| U10C U11C C12U C13G | 1.06 |
| U10C U11C C12U C13U | 1.02 |
| U10C U11C C12U C13A | 1.07 |
| G9U U11C C13A | 1.22 |
| G9U U11C C13G | 1.06 |
| G9U U11C C13U | 1.37 |
| U10A U11C C12A | 1.16 |
| U10A U11C C12G | 1.15 |
| U10A U11C C12U | 1.04 |
| G9U U11G C13G | 1.21 |
| G9U U11G C13A | 1.37 |
| G9U U11G C13U | 1.7 |
| G9U U10G | 4.12 |
| G9U U10C U11C C12G C13U | 1.1 |
| G9U U10C U11C C12G C13A | 1.08 |
| G9U U10C U11C C12G C13G | 1.11 |
| U10C U11G C12G C13U | 1.11 |
| U10C U11G C12G C13A | 1.24 |
| U10C U11G C12G C13G | 1.23 |
| U10A C12G C13U | 1.47 |
| U10A C12G C13A | 1.4 |
| U10A C12G C13G | 1.17 |
